Measured values taken from US20110301332A1 (CEPHALON AUSTRALIA VIC, published 2011).
No end group written: not given here.

B7: monoclonal antibody EGX-P-E9 (antibody, V domains shown)
VH: EVQLQQSGAELVRSGASVKLSCTASGFNIKDYYIHWVKQGPEQGLEWVGYIDPENGETAYAPKFQGKATLTADTSSNTAYLQLISLTSEDTAVYYCNAPYFSLGRNYWGQGTTLTVSS
VL: NVLMTQTPLSLPVSLGDQASISCRSSQSIVHGNGDTYLEWYLQKPGQSPKLLIYKVSNRFSGVPDRFSGSGSGTDFTLKIRRVEAEDLGVYYCFQGSHVPLTFGAGTKLELK
notes: Mouse IgG purified from hybridoma medium with Protein G; also called anti-PAMP EGX-P-E9 IgG; antibody of hybridoma clone PTA-7958
B8: human PAMP (13-20) (peptide)
peptide: WNKWALSR
modifications: ends and bridges not checked
notes: also called N-terminally truncated human PAMP, residues 13-20; C-terminal-most 8 residues of PAMP

Key:
[1] = target: B7; test: competitive ELISA: EGX-P-E9-coated wells, 10 nM biotinylated human full-length PAMP plus 1 µM (100x) unlabeled competitor peptide, streptavidin-peroxidase, OD
Method: (§1) The activity of the purified monoclonal antibody EGX-P-E9 was examined by ELISA (Enzyme Linked Immunosorbent Assay, FIG. 1). Wells of a 96-well microtiter plate were coated with 5 μg/ml anti-PAMP EGX-P-E9 IgG diluted in PBS for several hours. After washing wells with PBS, the coated wells were then incubated with a skim milk-PBS solution (Milk/PBS) to block non-specific antigen-binding. To determine the EC50, an estimate of the dissociation constant, various concentration (12 μM to 2 μM in Milk/PBS) of biothinylated human PAMP (biotinylated to an added N-terminal cysteine) was incubated in EGX-P-E9-coated wells. After washing wells with PBS+0.05% Tween 20 (PBST), the EGX-P-E9-biotin-PAMP complex was captured by the streptavidin-peroxidase conjugate and quantified by measuring the A450 using the peroxidase substrate TMB fluorescent reagent (Sigma Aldrich) and Benchmark microplate reader (BioRad).
The specificity of anti-PAMP EGX-P-E9 was also tested by ELISA with competitor PAMP peptides (FIG. 2). Antibody EGX-P-E9-coated wells were loaded with 10 nM biotinylated human full-length PAMP in Milk/PBS supplemented with one hundred fold excess (1 μM) of the following unlabeled competitor PAMP peptides: Rat PAMP, mouse PAMP, human full length PAMP (hum FL), and various N-terminally truncated human PAMPs (containing only residues 8-20, 10-20, 12-20 or 13-20). Quantification of the EGX-P-E9-biotin-PAMP complex was done as described above.

[2] = target: B7; test: competition ELISA, non-biotinylated PAMP against 6.2 nM biotinylated PAMP on EGX-P-E9-coated wells
Method: as §1
To confirm the affinity for PAMP, IC50 values were determined by competing the binding of the EGX-P-E9 antibody to the biotinylated PAMP with native (non-biotinylated) human PAMP. […] After washing the wells with PBST, the EGX-P-E9-biotin-PAMP complex was detected using the streptavidin-peroxidase conjugate and quantified by measuring the A450 using the peroxidase substrate TMB fluorescent reagent (Sigma Aldrich) and Benchmark microplate reader (BioRad) as above.

[3] = target: B8; test: competition ELISA with truncated PAMP peptides
Method: as §1
The specificity of anti-PAMP EGX-P-E9 was also tested by ELISA with competitor PAMP peptides (FIG. 2). […] Quantification of the EGX-P-E9-biotin-PAMP complex was done as described above.

[4] = target: T1, biotinylated human PAMP (biotinylated to an added N-terminal cysteine) (human, not fully specified; biotin on the added N-terminal cysteine; C-terminal amide); test: ELISA, antibody-coated wells, titration of biotinylated human PAMP, streptavidin-peroxidase detection
T1 construct: also called biotin-PAMP; biotinylated human full-length PAMP
T1 peptide: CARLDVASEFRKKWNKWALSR
Method: as §1

B1: mouse PAMP (peptide)
peptide: AGPDTPSQFRKKWNKWALSR-NH2
B1: binds [1].

B2: human PAMP (12-20) (peptide)
peptide: KWNKWALSR
modifications: not fully specified (C-terminus); ends and bridges not checked
notes: also called N-terminally truncated human PAMP, residues 12-20
B2: binds [1].

B3: human PAMP (10-20) (peptide)
peptide: RKKWNKWALSR
modifications: ends and bridges not checked
notes: also called N-terminally truncated human PAMP, residues 10-20
B3: binds [1].

B4: human PAMP (8-20) (peptide)
peptide: EFRKKWNKWALSR
modifications: ends and bridges not checked
notes: also called N-terminally truncated human PAMP, residues 8-20
B4: binds [1].

B5: Rat PAMP (peptide)
peptide: ARLDTSSQFRKKWNKWALSR-NH2
B5: binds [1].

B6: native (non-biotinylated) human PAMP (peptide)
peptide: ARLDVASEFRKKWNKWALSR-NH2
notes: also called human full length PAMP; hum FL
With B6 the IC50 [2] was 4 nM.

With B7 the binding result [3] was “binds” and the EC50 [4] was 6.2 nM.

B8: binds [1].
